In patent US20250051417A1:
Blank lines part the entries; values can stand above or below the substance they belong to.

Columns and labels:
[1] = molecular target: biotinylated Monomer MHC (HLA-A* 02:01 SLC45A2 (Biolegend, Custom Product, … (SEQ ID NO: 2)) (human)); experiment: flow cytometry of stained beads, calibrated; divided by the bead surface area
[2] = molecular target: biotinylated Monomer MHC (HLA-A* 02:01 SLC45A2 (Biolegend, Custom Product, … (SEQ ID NO: 2)) (human)); experiment: flow cytometry of stained beads, calibrated; divided by the nominal bead surface area
[3] = molecular target: costimulation antibodies on the antigen presenting beads (biotinylated anti-CD28 and biotinylated anti-CD2); experiment: flow cytometry of stained beads, calibrated; divided by the bead surface area
[4] = molecular target: costimulation antibodies on the antigen presenting beads (biotinylated anti-CD28 and biotinylated anti-CD2); experiment: flow cytometry of stained beads, calibrated; divided by the nominal bead surface area
[5] = molecular target: costimulation antibodies on the antigen presenting beads (biotinylated anti-CD28 and biotinylated anti-CD2); experiment: flow cytometry of stained beads, APC intensity calibrated with Quantum Simply Cellular beads; assumes 1 detection antibody per costimulation antibody
[6] = molecular target: Biotinylated peptide-Human Leukocyte Antigen complexes (pMHC); experiment: flow cytometry of stained beads, APC MFI calibrated with Quantum Simply Cellular beads; silica bead
[7] = molecular target: Biotinylated peptide-Human Leukocyte Antigen complexes (pMHC); experiment: flow cytometry of stained beads, APC MFI calibrated with Quantum Simply Cellular beads; polymeric bead

- pMHC Density (molecules/sq micron) [1]: 14800
- pMHC Density (molecules/sq micron) [2]: 19800
Substance: APC-conjugated anti-HLA-A (Biolegend, Catalog Number 343308) (antibody)

- Costimulation Antibody Density (molecules/sq micron) [3]: 15600
- Costimulation Antibody Density (molecules/sq micron) [4]: 17300
- Costimulation antibodies/bead (anti-Mouse IgG1 antibodies bound per bead) (antibodies/bead) ([5]; M-280 convoluted polymer beads): 427000
- Costimulation antibodies/bead (anti-Mouse IgG1 antibodies bound per bead) (antibodies/bead) ([5]; substantially spherical silica beads): 845000
Substance: APC-conjugated monoclonal anti-Mouse-IgG1 (Biolegend, Catalog Number 406610) (antibody)

Substance: anti-HLA-A conjugated to APC (Clone BB7.2, Biolegend) (antibody)
- Ligands/Bead (detection antibodies bound per bead) [6]: 604000 Ligands/Bead
- Ligands/sq um (Ligands/sq um) [6]: 12000
- Ligands/Bead (detection antibodies bound per bead) [7]: 487000 Ligands/Bead
- Ligands/sq um (Ligands/sq um) [7]: 19800
